Reference: article PMC12102759 (2025)

B1: AMOTL2 peptide 64-79 (Angiomotin-like protein 2), 16-mer library wild type / TNKS ANK (TNKS 12 ANK repeats, residues 174-649) (parent complex)
chain 1: QVLQQATRQEPQGQEH
chain 2: TGVPAVSGALRELLEACRNGDVSRVKRLVDAANVNAKDMAGRKSSPLHFAAGFGRKDVVEHLLQMGANVHARDDGGLIPLHNACSFGHAEVVSLLLCQGADPNARDNWNYTPLHEAAIKGKIDVCIVLLQHGADPNIRNTDGKSALDLADPSAKAVLTGEYKKDELLEAARSGNEEKLMALLTPLNVNCHASDGRKSTPLHLAAGYNRVRIVQLLLQHGADVHAKDKGGLVPLHNACSYGHYEVTELLLKHGACVNAMDLWQFTPLHEAASKNRVEVCSLLLSHGADPTLVNCHGKSAVDMAPTPELRERLTYEFKGHSLLQAAREADLAKVKKTLALEIINFKQPQSHETALHCAVASLHPKRKQVTELLLRKGANVNEKNKDFMTPLHVAAERAHNDVMEVLHKHGAKMNALDTLGQTALHRAALAGHLQTCRLLLSYGSDPSIISLQGFTAAQMGNEAVQQILSESTPIRTSD
B2: AMOTL2 peptide 66-81 (Angiomotin-like protein 2), 16-mer library wild type / TNKS ANK (TNKS 12 ANK repeats, residues 174-649) (parent complex)
chain 1: LQQATRQEPQGQEHQG
chain 2: B1 chain 2

Variants of: B1
Test: proteomic peptide phage display deep mutational scan (ProP-PD DMS): M13 P8 16-mer library selected against immobilised GST-tagged bait for four days (rounds), NGS of the eluted pools per day and pseudo-replica; bait immobilised on MaxiSorp plates (10 µg), library pre-cleared on GST, 2 h binding at 4 °C, five washes; one round per day, days 1-4; value from days 2 and 3

Row | Variant | screen value
1 | chain 1 Q5E | 0.000474 average fractional NGS count over selection days 2 and 3 (reads of this peptide / all reads for the bait, averaged over …
2 | chain 1 Q5K | 0.000455 average fractional NGS count over selection days 2 and 3 (reads of this peptide / all reads for the bait, averaged over …
3 | chain 1 T7H | 0.00103 average fractional NGS count over selection days 2 and 3 (reads of this peptide / all reads for the bait, averaged over …
4 | chain 1 T7W | 0.00146 average fractional NGS count over selection days 2 and 3 (reads of this peptide / all reads for the bait, averaged over …
5 | chain 1 T7G | 0.00299 average fractional NGS count over selection days 2 and 3 (reads of this peptide / all reads for the bait, averaged over …
6 | chain 1 T7E | 0.000563 average fractional NGS count over selection days 2 and 3 (reads of this peptide / all reads for the bait, averaged over …
7 | chain 1 R8A | 0.000176 average fractional NGS count over selection days 2 and 3 (reads of this peptide / all reads for the bait, averaged over …

Variants of: B2
Test: as above

Row | Variant | screen value
8 | chain 1 Q12M | 0.000359 average fractional NGS count over selection days 2 and 3 (reads of this peptide / all reads for the bait, averaged over …
9 | chain 1 Q12L | 0.000442 average fractional NGS count over selection days 2 and 3 (reads of this peptide / all reads for the bait, averaged over …
10 | chain 1 Q12Y | 0.000541 average fractional NGS count over selection days 2 and 3 (reads of this peptide / all reads for the bait, averaged over …
11 | chain 1 Q12H | 0.00103 average fractional NGS count over selection days 2 and 3 (reads of this peptide / all reads for the bait, averaged over …
12 | chain 1 Q12I | 9.74e-05 average fractional NGS count over selection days 2 and 3 (reads of this peptide / all reads for the bait, averaged over …
13 | chain 1 H14L | 0.000412 average fractional NGS count over selection days 2 and 3 (reads of this peptide / all reads for the bait, averaged over …
14 | chain 1 H14F | 0.00233 average fractional NGS count over selection days 2 and 3 (reads of this peptide / all reads for the bait, averaged over …
15 | chain 1 H14V | 0.00237 average fractional NGS count over selection days 2 and 3 (reads of this peptide / all reads for the bait, averaged over …
16 | chain 1 H14A | 0.00145 average fractional NGS count over selection days 2 and 3 (reads of this peptide / all reads for the bait, averaged over …
17 | chain 1 H14M | 0.000405 average fractional NGS count over selection days 2 and 3 (reads of this peptide / all reads for the bait, averaged over …
18 | chain 1 H14I | 0.000314 average fractional NGS count over selection days 2 and 3 (reads of this peptide / all reads for the bait, averaged over …
19 | chain 1 H14E | 0.000155 average fractional NGS count over selection days 2 and 3 (reads of this peptide / all reads for the bait, averaged over …
20 | chain 1 H14W | 0.00121 average fractional NGS count over selection days 2 and 3 (reads of this peptide / all reads for the bait, averaged over …
21 | chain 1 Q10Y | 0.00045 average fractional NGS count over selection days 2 and 3 (reads of this peptide / all reads for the bait, averaged over …
22 | chain 1 Q10E | 0.000182 average fractional NGS count over selection days 2 and 3 (reads of this peptide / all reads for the bait, averaged over …
23 | chain 1 Q10H | 0.000277 average fractional NGS count over selection days 2 and 3 (reads of this peptide / all reads for the bait, averaged over …

Row | Variant | screen value
24 | chain 1 Q10L | 0.00347 average fractional NGS count over selection days 2 and 3 (reads of this peptide / all reads for the bait, averaged over …
25 | chain 1 Q10I | 0.000713 average fractional NGS count over selection days 2 and 3 (reads of this peptide / all reads for the bait, averaged over …
26 | chain 1 Q10D | 0.00111 average fractional NGS count over selection days 2 and 3 (reads of this peptide / all reads for the bait, averaged over …
27 | chain 1 Q10W | 0.000745 average fractional NGS count over selection days 2 and 3 (reads of this peptide / all reads for the bait, averaged over …
28 | chain 1 Q7Y | 0.000137 average fractional NGS count over selection days 2 and 3 (reads of this peptide / all reads for the bait, averaged over …
29 | chain 1 Q7T | 0.000305 average fractional NGS count over selection days 2 and 3 (reads of this peptide / all reads for the bait, averaged over …
30 | chain 1 Q7M | 0.00184 average fractional NGS count over selection days 2 and 3 (reads of this peptide / all reads for the bait, averaged over …
31 | chain 1 Q7P | 0.000611 average fractional NGS count over selection days 2 and 3 (reads of this peptide / all reads for the bait, averaged over …
32 | chain 1 Q7L | 0.00305 average fractional NGS count over selection days 2 and 3 (reads of this peptide / all reads for the bait, averaged over …
33 | chain 1 Q7A | 0.000124 average fractional NGS count over selection days 2 and 3 (reads of this peptide / all reads for the bait, averaged over …
34 | chain 1 Q7F | 0.000322 average fractional NGS count over selection days 2 and 3 (reads of this peptide / all reads for the bait, averaged over …
35 | chain 1 Q7N | 0.000208 average fractional NGS count over selection days 2 and 3 (reads of this peptide / all reads for the bait, averaged over …
36 | chain 1 Q3F | 0.000606 average fractional NGS count over selection days 2 and 3 (reads of this peptide / all reads for the bait, averaged over …
37 | chain 1 Q3L | 0.000335 average fractional NGS count over selection days 2 and 3 (reads of this peptide / all reads for the bait, averaged over …
38 | chain 1 Q3G | 0.000192 average fractional NGS count over selection days 2 and 3 (reads of this peptide / all reads for the bait, averaged over …
